Measured values published in the RNAGym collection of RNA variant scans (doi:10.1073/pnas.2313332121).
Variants at the floor of the assay were thinned out.

B1: TPR 5TU (parent)
chain: GGAUCUUCUCGAUCUAACAAAAAAGACAAAUCUGCCACAAAGCUUGAGAGCAUCUUCGGAUGCAGAGGCGGCAGCCUUCGGUGGCGCGAUAGCGCCAACGUUCUCAACUAUGACACGCAAAACGCGUGCUCCGUUGAAUGGAGUUUAUCAUG

Variants of: B1
Experiment: polymerase ribozyme fitness, log enrichment relative to wild type (log ratio); higher = more active; in vitro selection for triplet polymerase activity
In short: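 After PCR construction and transcription, each subunit's mutant library from a heterodimeric triplet polymerase ribozyme was annealed with a biotinylated primer, the partner subunit and triplets. Incubation was frozen, at −7 °C, and extended constructs were gel-excised, bound to streptavidin beads and amplified by RT-PCR, in one selection round done in triplicate. Fitness is the logarithm of a genotype's enrichment divided by that of the wild type, from inverse-variance-weighted replicate averages of Illumina-sequenced inputs and outputs. The base of the logarithm is 2, and genotypes needed ≥10 input reads and ≥1 read per output.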

Row | Variant | polymerase ribozyme fitness (log ratio)
1 | GGAUCUUCUCGAUCUAACAAACAAGACAAAUCUGCCACAAAGCUUGAGACCAUCUUGGGAUGCAGAGGCGGCAGCCUUCUGUGGCGAGAUAGCGCCAACGUUCUCAACUAUGACACGCAAAACGCGUGCUCCGUUGAAUGGAGUUUAUCUUG [A22C G50C C57G G80U C87A A150U] | ≤ -4.2
2 | GGAUCUUCUCGAUCUAACAAACAAGACAAAUCUGCCACACAGCUUGAGAGCAUCUUCGGAUGGAGAGGCGGCAGCCUUCGGUGGCGCGAUAGCGCCAACGUUCUCAACUAUGACACGCAAAACGCGUGCUCCGUUGAAUGGAGUUUAUCAUG [A22C A40C C63G] | 0.514
3 | GGAUCUUCUCGAUCUAACAAACAAGACAAAUCUGCCACAAAGCUUGAGAGCAUCUUCGGAUGCAGAGGCGGCAGCCUUAGGUUGCGCGAUAGCGCCAACGUUCUCAACUAUGACGCGCAAAACGCGUGCUCCGUUGAAUGAAGUUUAUCAUG [A22C C79A G83U A115G G141A] | ≤ -4.2
4 | GGAUCUUCUCGAUCUAACAAACAAGACAAAUCUGCCACAAAGCUUGAGAGCAUCUUUGGAUGCAGAGGCGGCAGCCUUCGGUGGCGCGAUAGCGCCAACGUUCUCAACUAUGACACGCAAAACGCGUGCUCCGUUGAAUGGAGUUUAUCAUG [A22C C57U] | -0.765
5 | GGAUCUUCUCGAUCUAACAAACAAGACAAAUCUGCCACAAAGCUUGAGAGCAUCUUCGGAUGCAAAGGCGGCAGCCUUCGGUGGCGCGAUAGCGCCAACGUUCGCACCUAUGACACGCAAAACGCGGGCUCCGUUGAAUGGAGUUUAUCAUG [A22C G65A U104G A107C U127G] | ≤ -4.2
6 | GGAUCUUCUCGAUCUAACAAACAAGACAAAUCUGCCACAAAGCUUGAGAGCCUCUUCGGAUGCAGAGGCGGCAGCCUUCGGUGGCGCGAUAGCGCCAACGUUCUCAACUAUGACACGCAAAACGCGUGCUCCGUUGAAUGGAGUUUAUCAUG [A22C A52C] | -1.04
7 | GGAUCUUCUCGAUCUAACAAACAAGACGAAUCUGCCACAAAGCUUGACAGCAUCUUCGGAUACCGAGGCGGCAGCCUUCGGUGGUGCGAUAGCGCCAACGUUCUCAACUAUGACACGCAAAACGCGUGCUCCGUUGAAUGGAGUUUAUCAUG [A22C A28G G48C G62A A64C C85U] | ≤ -4.2
8 | GGAUCUUCUCGAUCUAACAAACAAGACAAAUCUGCCACAAAGCUUGAGAGCAUCUUCAGAUGCAGAGGCGGAAGCCUUCGGUGGCGGGAUAGCGCCAACGUUCUCAACUAUGACACGCAAAACGGUUGCUCCGUUGAAUGGAGUUUAUCAUG [A22C G58A C72A C87G C125G G126U] | ≤ -4.2
9 | GGAUCUUCUCGAUCUAACAAACAAGACAAAUCUGCCACAAAGCUUAAGAGCAUCUUCGGAUGCAGAGGCGGCAGCUUUCGGUGGCGCGAUAGCGCCAACGUUCUCAACUAUGACACGCAAAACGCGUGCUCCGUUGAAUGGAGUUUAUCAUG [A22C G46A C76U] | ≤ -4.2
10 | GGAUCUUCUCGAUCUAACAAACAAGACAAAUCUGCCACAAAGCUUGAGAGCAUCUUCGGAUGCAGAGGCGGCAGCAUUCGGUGGAGCGAUAGUGCCAACGUUCUCAACUAUGACACGCAAAACGCGUGCUCAGUUGAAUGGUGUUUAUCAUG [A22C C76A C85A C93U C132A A142U] | ≤ -4.2
11 | GGAUCUUCUCGAUCUAACAAACAAGACAAAUCUGCCACAUAGCUUGAGAGCAUCUUCGGAUGCAGAGGCGGCAGCCUUCGUUGGCGCGAUAGAGCCAAUGUUCUCAACUAUGACAAGCAAAACGCGUGCUCCGUUGAAUGGAGUUUAUCAUG [A22C A40U G81U C93A C99U C116A] | -3.08
12 | GGAUCUUCUCGAUCUAACAAACAAGACAAGUCUGCCACAAAGCUUGAGAGCAUCUUCGGGUGCAGAGACGGCAGCCUUCGGUGGAGCGAUCGCGCCAACGUUCUCAACUAUGACACGCAAAACGCAUGCUCCGUUGAAUGGAGUUUAUCAUG [A22C A30G A60G G68A C85A A91C G126A] | ≤ -4.2
13 | GGAUCUUCUCGAUCUAACAAACAAGACAAAUCUGCCACAAAGCUUGAGAGCAUCUUCGGAUGCAGAGGCGGCAGCCUUCGGUGGCGCGAUAGCGUCAACGUUCUCAACUAUGACACGCAAAACGCGUGCUCCGUUGAUUGGAGUUUAUCAUG [A22C C95U A138U] | ≤ -4.2
14 | GGAUCUUCUCGAUCUAACAAACAAGACAAAUCUGCCACAAAGCUUGAGAGCAUCUUCGGAUGCAGAGGCGGCAGCCUUCGGUGGCGCGAUAGCGCUAACGUUCUCAACUAUGACACGCAAAACGCGUGCUCCGUUGAAUGGAGUUUAUCAUG [A22C C96U] | -0.0389
15 | GGAUCUUCUCGAUCUAACAAACAAGACAAAUCUGCCACAAAGCUUGAGAGUAUCUACGGAUGCAGAGGCGGCAGCCUUCGGUGGCGCGAUAUCGCCAACCGUGUCAACUAUGACACGCAAAACGCGUGCUCCGUUGAAUGGAUUUUAUCAUA [A22C C51U U56A G92U G100C U101G C103G G143U G152A] | ≤ -4.2
16 | GGAUCUUCUCGAUCUAACAAACAAGACAAAUCUGCCACAAAGCUUGAGAGCAUAUUCGGAUGCAGAGGCGGCAGCCUUCGGUGGCGCGAUAGCACCAUCGUUCUCAACUAUGACACGCAAAACGCGUGCUCCGUUGAAUGGAGUUUAUCAUG [A22C C54A G94A A98U] | -1.82
17 | GGAUCUUCUCGAUCUAACAAACAAGACAAAUCUGCCACAAAGCUUGAGAGCAUCUUCGGAUGCACAGGCGGCAGCCUUCUGUGGCGCGAUGGCGCCAACGUUCUCAACUAUGACACGCAAAACGCGUGCUCCGUUGAAUGGAGUUUAUCAUG [A22C G65C G80U A91G] | ≤ -4.2
18 | GGAUCUUCUCGAUCUAACAAACAAGAUAAAUCUGCCACAAAGCUUGAGAGCAUCUUCGGAUGCAGAGGCGGCAGCCUUCGGUGGCGCGAUAGCGCCAACGUUCUCAACUAUGACACGCAAAACGCGCGCUCCGUUGAAUGGAGUUUAUCAUG [A22C C27U U127C] | -3.95
19 | GGAUCUUCUCGAUCUAACAAACAAGACAAAUCUGCCACAAAGCUUGAGAGCAUCUUCGGCUUCAGAGGCGGCAGCCUUCGGUGGCGCGAUAGCGCCAACGUUCUCAACUAUGACACGCAAAACGCGUGCUCCGUUGAAUGGAGUUUAUCAUG [A22C A60C G62U] | -2.13
